Experimental findings from article doi:10.1101/2024.01.26.576347 are described below.

What is called EC50 is the concentration at which the effect is half-maximal.

In assay [1] the target is α-tubulin (human (endogenous in VTC-037 GSCs)) (UniProt P68363). The assay is described as follows: cellular thermal shift assay.
Assay [2] has as its target β-tubulin (human (endogenous in VTC-001 and VTC-037 GSCs)) (UniProt P07437). The assay is described as follows: cellular thermal shift assay.

Sequence of α-tubulin (human (endogenous in VTC-037 GSCs)) (P68363 whole entry): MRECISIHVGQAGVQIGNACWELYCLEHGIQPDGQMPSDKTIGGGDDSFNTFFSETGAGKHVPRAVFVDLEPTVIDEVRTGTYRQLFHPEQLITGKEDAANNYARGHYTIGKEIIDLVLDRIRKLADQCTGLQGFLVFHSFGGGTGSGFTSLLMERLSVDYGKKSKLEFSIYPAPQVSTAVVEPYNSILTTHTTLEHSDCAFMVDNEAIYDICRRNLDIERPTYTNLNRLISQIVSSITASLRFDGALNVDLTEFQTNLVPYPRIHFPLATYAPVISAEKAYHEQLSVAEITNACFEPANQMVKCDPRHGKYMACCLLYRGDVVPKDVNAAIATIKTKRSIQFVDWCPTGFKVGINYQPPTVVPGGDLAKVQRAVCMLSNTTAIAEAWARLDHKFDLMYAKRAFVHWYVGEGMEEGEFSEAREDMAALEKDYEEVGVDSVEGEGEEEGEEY

Take “JM2 (juxtamembrane 2), Cx43 mimetic peptide (from UniProt P17302 231-245)”: the EC50 is 8.4 nM in assay [1] and 7.9 nM in assay [2].
